Measured values: patent publication US20060110789A1, “Methods to mediate polyketide synthase module effectiveness” (priority 2002, published 2006)
“And” between values parts separate entries of the source, which are not always exact repeats. Equal values may be shown once.

Legend:
[1] = molecular target: M3+TE or (5)M3+TE (DEBS module 3 fused to thioesterase); details: with M3+TE, cited from earlier work
[2] = tested on: cysteamine thioester of 2S,3R-2-methyl-3-hydroxypentanoic acid (diketide); assay: Cell-free synthesis of triketides from diketide thioester by single module constructs; assay type: biochemical; details: 0.5-10 mM diketide thioester, 2.5 mM 14C-methylmalonyl CoA, 100 pmoles protein, 30 minutes, TLC
Experimental: (§1) A cell-free system, tested for the ability to convert the cysteamine thioester of 2S,3R-2-methyl-3-hydroxypentanoic acid (compound 2 in FIG. 2), consisted of 0.5-10 mM concentration of the thioester, 2.5 mM ^14C-labeled methylmalonyl CoA and 100 pmoles of purified protein prepared in Example 1 in a 100 μl reaction. In some cases, 1 mM of NADPH was added; this was done in assay mixtures containing (M2+TE), (M5+TE) and (M6+TE) proteins. The protein was, in each case, a single module of the DEBS PKS fused to the thioesterase (TE) termination region of module 6.
The reaction mixtures were quenched and extracted by ethyl acetate and separated by thin-layer chromatography (TLC) to discern the formation of the triketide ketolactone 3 and triketide lactone 4 (both shown in FIG. 2) after 30 minutes.
The constructs for (M2+TE) and (M6+TE) were modified by deleting the sequences encoding the amino acids upstream of the KS catalytic domain and substituting the first 39 amino acids from (M5+TE) containing the N-terminal portion of the interpolypeptide linker (N-ERL). The relevant constructs were prepared by replacing the BsaBI-EcoRI fragment in pRSG46 by the corresponding fragment from pCK4 to obtain N-ERL-M2+TE), in plasmid pRSG64, or from pJRJ10 to obtain (N-ERL-M6+TE) in plasmid pRSG54. These constructs yield modules which contain the upstream 39 amino acids from module 5.

[3] = tested on: diketide thioester; assay: Kinetic constants kcat and KM of single module constructs converting diketide to triketide; assay type: biochemical
Experimental: as §1
The various constructs which are successful in converting diketide to triketide were then evaluated for the kinetic constants kcat and KM. […] This is evidently due to the absence of beta-carbonyl modifying enzymes in module 3 as verified by the fact that removal of NADPH, (which is required for the activity of such modules) from the reaction mixture of (N-ERL-M6+TE) also results in a lowering of the kcat.

[4] = molecular target: T1, M2 and M3+TE (Saccharopolyspora erythraea, UniProt Q03131); assay: Inhibition of tetraketide production by synthetic peptide, M2-M3 linker pair; assay type: biochemical; details: M2 and M3+TE both 1.0 μM, peptide 1 to 100 μM
T1 construct: Plasmid pBP19 contains module 2 of DEBS (M2) and is a derivative of pRSG64; made in house; host or cells: E. coli BL21(DE3) with B. subtilis sfp; pET-21c
Experimental: (§2) Inhibition of Tetraketide Production. The ability of the synthetic peptide to inhibit the transfer reaction, and thus the production of tetraketide, was tested under the same reaction conditions described for the two module coincubations. The concentrations of M2 and M3+TE were both 1.0 μM, and the concentrations of M2(4) and (5)M3+TE were 0.5 and 1.0 μM, respectively. The only difference was the addition of the peptide at concentrations ranging from 1 to 100 μM to the assay containing M2 and M3+TE [or alternatively M2(4) and (5)M3+TE]. For greater accuracy, each inhibition assay was performed side by side with a control lacking inhibitor. The effect of the inhibitor was thus determined by dividing the inhibited rate by the control rate.

[5] = molecular target: T2, M2(4) and (5)M3+TE (Saccharopolyspora erythraea, UniProt Q03131+Q03133, A1559G/A1612M/A1613S/A1621R/A1638S/A1707S/A1714P/A1717D/A1741R/A1766S/A1884G/A1933P/A1935T/A1951R/A1969R/A1973H/A1979Q/A2007V/A2008V/A2011V/A2018D/A2064V/A2138S/D1597P/D1620G/DEL1744-1744/DEL1923-1924/DEL1955-1967/E1628D/E1873D/E1883D/E1925V/E1947G/E1993A/E2004D/F1591L/G1618A/G1705A/G1739A/G1878E/G1927Q/G1930R/G1977A/G1990A/G1997H/G2038E/G2099R/H1599E/H1992T/I1756V/INS1626G/INS1975[…]/K1779R/K2139R/L1590A/L1610V/L1858V/L1941V/L1981F/L1987V/L1995A/L2136R/L2141V/L2144V/N1593S/N1855E/N1936G/P1725G/P1740R/P1870G/P1887E/P1889S/P1982E/Q1619T/Q1732V/Q1746R/Q1994E/Q1998R/Q2070P/R1983E/R1996V/S1600T/S1627V/S1636T/S1637A/S1670T/S1886R/S1937V/S1972D/S2041P/S2089A/S2104V/T1762S/T1948A/T1968G/T1976R/T2012V/T2015S/V1583A/V1601L/V1622P/V1623R/V1640A/V1644I/V1655L/V1708P/V1728S/V1730F/V1851L/V1879I/V1929R/V1931M/V2006A/V2021S/V2103A/V2124A/V2131M/Y1614H); assay: Inhibition of tetraketide production by synthetic peptide, M4-M5 linker pair; assay type: biochemical; details: M2(4) 0.5 μM and (5)M3+TE 1.0 μM, peptide concentrations up to 100 μM
T2 construct: Plasmid pST179 encodes a derivative of M2 containing the C-terminal linker of DEBS module 4 (M4); made in house; host or cells: E. coli BL21(DE3) with B. subtilis sfp; pET-21c
Experimental: as §2

[6] = tested on: individually assayed modules, including M3+TE; assay: Effect of synthetic peptide on individually assayed modules; assay type: biochemical
Experimental: In Vitro Polyketide Production Assays of individual modules contained 1.0 μM protein, 1-10 mM N-acetylcysteamine thioester of the “natural” (2S,3R)-2-methyl-3-hydroxypentanoic acid diketide (NDK) (1), 4 mM NADPH, 440 mM sodium phosphate, 1 mM EDTA, 2.5 mM dithiothreitol (DTT), and 20% w/v glycerol, pH 7.2, in 80 μL. Reactions with M2 or M2(4) included 0.3 mM ^14C-methylmalonyl-CoA (specific activity adjusted to 10.4 mCi/mmol), and those with M3+TE or (5)M3+TE included 0.5 mM ^14C-methylmalonyl-CoA (specific activity reduced to 1.1 mCi/mmol). [M2(4) refers to a derivative of M2 in which the C-terminal linker has been replaced with its counterpart from module 4, whereas (5)M3 refers to a derivative of M3 in which the N-terminal linker has been replaced with its counterpart from module 5 (see FIG. 4).] Both concentrations of methylmalonyl-CoA were saturating, but different concentrations were needed due to the disparate rates of turnover between the modules with and without the thioesterase. The reaction mixtures were preincubated to 30° C. and started with the addition of the methylmalonyl-CoA. […] Product formation was quantified by comparison with standards of the labeled methylmalonyl-CoA. […]
Inhibition of Tetraketide Production. […] The effect of the inhibitor was thus determined by dividing the inhibited rate by the control rate.

[7] = tested on: N-acetylcysteamine thioester of (2S,3R)-2-methyl-3-hydroxypentanoic acid diketide (NDK); assay: In vitro polyketide production assays of individual modules with NDK (kinetic analysis); assay type: biochemical; details: NDK 1-10 mM, 1.0 μM protein, 30° C; M2 and M2(4) only approximate (triketide lactone 3)
Experimental: In Vitro Polyketide Production Assays of individual modules contained 1.0 μM protein, 1-10 mM N-acetylcysteamine thioester of the “natural” (2S,3R)-2-methyl-3-hydroxypentanoic acid diketide (NDK) (1), 4 mM NADPH, 440 mM sodium phosphate, 1 mM EDTA, 2.5 mM dithiothreitol (DTT), and 20% w/v glycerol, pH 7.2, in 80 μL. Reactions with M2 or M2(4) included 0.3 mM ^14C-methylmalonyl-CoA (specific activity adjusted to 10.4 mCi/mmol), and those with M3+TE or (5)M3+TE included 0.5 mM ^14C-methylmalonyl-CoA (specific activity reduced to 1.1 mCi/mmol). [M2(4) refers to a derivative of M2 in which the C-terminal linker has been replaced with its counterpart from module 4, whereas (5)M3 refers to a derivative of M3 in which the N-terminal linker has been replaced with its counterpart from module 5 (see FIG. 4).] […] Product formation was quantified by comparison with standards of the labeled methylmalonyl-CoA. […]
Kinetic Analysis. For individual modules, the steady-state turnover number was determined from the time course of triketide formation, normalized to the concentration of protein. The dependence of the rate on substrate concentration was measured by varying the concentration of NDK while maintaining saturating levels of NADPH and methylmalonyl-CoA.

[8] = tested on: M3+TE or (5)M3+TE (DEBS module 3 fused to thioesterase); assay: Coincubation of donor module 2 proteins with module 3+TE: tetraketide lactone 2 formation and KD; assay type: biochemical; details: acceptor (5)M3+TE, matched M4-M5 linker pair, saturation curve
Experimental: Assays of M2 and M3+TE contained 10 μM M2 and […] M3+TE, 7 mM NDK, 0.5 mM ^14C-methylmalonyl-CoA (specific activity reduced to 3.4 mCi/mmol), 4 mM NADPH, 440 mM sodium phosphate, 1 mM EDTA, 2.5 mM DTT, and 20% w/v glycerol, pH 7.2, in 70 μL. Assays of M2(4) and (5)M3+TE were identical, except they contained 0.5 μM M2(4), 0.5-5 μM (5)M3+TE, and 0.4 mM ^14C-methylmalonyl-CoA (specific activity reduced to 6.2 mCi/mmol). The concentration of M2(4) was limiting in order to facilitate its saturation with (5)M3+TE. The reactions were prewarmed at 30° C. and initiated by the addition of the methylmalonyl-CoA. As described above, 20 μL aliquots were removed at various time points and processed. […]
For tetraketide formation, the rate of production of tetaketide was recorded for varying concentrations of M3+TE [or (5)M3+TE] at a fixed concentration of M2 [or M2(4)] and saturating concentrations of substrates. By fitting the rate dependence of tetraketide to a saturation curve, the maximal velocity (vmax) of tetraketide production was determined, and was assumed to represent the case where every M2 homodimer was productively associated with an M3+TE homodimer. Thus, the affinity of this protein-protein interaction could be calculated from the rate v=kcat[M2−M3] […]

[9] = diketide to triketide, cell-free
[10] = listed as N-terminal linker of module 3
[11] = listed as synthetic peptide mimic of the N-terminal linker of M3

## DEBS1: first protein of 6-deoxyerythronolide B synthase: loading module and extender modules 1 and 2
[1]; Gokhale et al. 1999, read-out: KD (previously reported value)
  Kd: 2600 nM
[1]; Pieper et al. 1997
  rate of formation of the same tetraketide (earlier measurement): 0.23 min⁻¹

## ERL−M2+TE: module 2+TE with the first 39 amino acids from (M5+TE), N-terminal interpolypeptide linker (pRSG64)
[2]
  Triketide Formed: Yes
[3]; [9]
  Km: 4.6 ± 0.4 mM
  kcat × 100: 8 ± 0.6 min^−1

## ERL−M6+TE: module 6+TE with the first 39 amino acids from (M5+TE), N-terminal interpolypeptide linker (pRSG54)
[2]
  Triketide Formed: Yes
[3]; [9]
  Km: 4.3 ± 0.4 mM
  kcat × 100: 9.5 ± 0.6 min^−1
[3]; −NADPH
  Km: 4.1 ± 0.4 mM
  kcat × 100: 4.5 ± 0.7 min^−1

## H2N-MTDSEKVAEYLRRATLDLRAARQRIRELESD-amide (H-MTDSEKVAEYLRRATLDLRAARQRIRELESD-NH2) [M3 N-term]
[4]; [10]
  inhibition of tetraketide production: inhibit the formation of 2 in the presence of M2 and M3+TE in a concentration-dependent manner
[4]; [11]
  inhibition of tetraketide production: lowered the overall rate of tetraketide production in a dose-dependent fashion
[5]; [10]
  inhibition of tetraketide production: No inhibitory effect
[5]; [11]
  inhibition of tetraketide production: no such effect
[6]
  inhibitory effect upon individually assayed modules: no inhibitory effect

## M2(4): derivative of M2 containing the C-terminal linker of DEBS module 4 (pST179)
[7]
  kcat: ~0.0005 s⁻¹
[8]
  kcat of tetraketide lactone 2 synthesis: 0.0123 ± 0.001 s⁻¹ and 0.0123 s⁻¹

## M5+TE: DEBS module 5 with its natural N-terminal linker fused to thioesterase (pRSG46)
[2]
  Triketide Formed: Yes
[3]; [9]
  Km: 4.7 ± 0.4 mM
  kcat × 100: 7.5 ± 0.7 min^−1
